From patent US20110300138A1 (published 2011)

How the values were obtained:
[1] = molecular target: TSHR with Asp160 mutated to Lys, expressed in CHO cells (human) (UniProt P16473); assay: cell-based or functional assay
[2] = molecular target: TSHR with Arg255 mutated to Ala, expressed in CHO cells (human) (UniProt P16473); assay: cell-based or functional assay
Sequence of TSHR with Arg255 mutated to Ala, expressed in CHO cells (human) (P16473 other isoform, or with tags, fused parts or gaps, change not shown): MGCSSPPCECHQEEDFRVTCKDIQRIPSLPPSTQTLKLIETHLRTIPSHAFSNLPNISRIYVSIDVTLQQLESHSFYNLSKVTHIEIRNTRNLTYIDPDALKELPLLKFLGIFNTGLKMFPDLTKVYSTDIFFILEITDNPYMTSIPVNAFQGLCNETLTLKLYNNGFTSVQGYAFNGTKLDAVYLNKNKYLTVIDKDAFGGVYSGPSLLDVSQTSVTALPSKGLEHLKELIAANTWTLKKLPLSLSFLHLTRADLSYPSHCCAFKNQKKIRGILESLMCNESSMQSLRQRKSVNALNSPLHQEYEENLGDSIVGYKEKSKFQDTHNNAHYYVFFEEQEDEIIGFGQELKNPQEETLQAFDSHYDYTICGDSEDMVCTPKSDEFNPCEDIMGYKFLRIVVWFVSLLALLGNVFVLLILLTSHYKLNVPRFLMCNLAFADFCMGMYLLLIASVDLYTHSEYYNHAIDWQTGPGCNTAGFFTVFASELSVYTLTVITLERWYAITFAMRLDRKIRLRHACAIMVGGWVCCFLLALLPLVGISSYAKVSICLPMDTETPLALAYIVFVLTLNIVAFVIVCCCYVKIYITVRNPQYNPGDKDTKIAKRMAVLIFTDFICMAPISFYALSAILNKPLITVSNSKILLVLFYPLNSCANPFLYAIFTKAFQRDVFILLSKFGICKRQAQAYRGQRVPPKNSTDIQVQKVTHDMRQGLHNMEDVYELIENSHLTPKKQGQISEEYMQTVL

Sequence of TSHR with Asp160 mutated to Lys, expressed in CHO cells (human) (P16473 other isoform, or with tags, fused parts or gaps limits assumed, change not shown): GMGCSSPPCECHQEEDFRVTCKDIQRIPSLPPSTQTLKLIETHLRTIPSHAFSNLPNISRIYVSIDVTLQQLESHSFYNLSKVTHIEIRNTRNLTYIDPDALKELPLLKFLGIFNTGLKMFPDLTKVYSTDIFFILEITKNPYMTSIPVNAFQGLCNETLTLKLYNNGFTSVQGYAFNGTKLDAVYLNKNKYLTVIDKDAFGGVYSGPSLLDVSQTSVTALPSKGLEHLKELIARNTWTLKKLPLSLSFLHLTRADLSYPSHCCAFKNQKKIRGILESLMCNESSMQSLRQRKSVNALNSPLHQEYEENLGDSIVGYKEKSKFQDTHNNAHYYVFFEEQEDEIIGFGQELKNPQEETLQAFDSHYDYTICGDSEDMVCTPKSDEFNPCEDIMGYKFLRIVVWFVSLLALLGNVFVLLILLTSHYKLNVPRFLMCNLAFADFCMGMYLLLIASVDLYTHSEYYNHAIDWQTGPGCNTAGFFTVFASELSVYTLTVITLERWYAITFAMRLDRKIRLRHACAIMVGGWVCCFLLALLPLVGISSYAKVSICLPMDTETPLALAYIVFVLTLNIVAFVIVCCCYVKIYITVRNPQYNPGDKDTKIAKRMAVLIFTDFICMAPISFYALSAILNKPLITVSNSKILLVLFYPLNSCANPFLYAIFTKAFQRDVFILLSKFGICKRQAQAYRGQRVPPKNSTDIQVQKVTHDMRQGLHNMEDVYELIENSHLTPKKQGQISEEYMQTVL

For 5B3 IgG (antibody), the % inhibition of TSH stimulation (stimulator given as M22), mutated TSHR; 5B3 10 µg/mL [1] was 0%, the % inhibition of TSH stimulation (stimulator given as M22), mutated TSHR; 5B3 100 µg/mL [1] was 11% and the Mutated/wild type (%) of cyclic AMP produced; test sample: 5B3 10 µg/mL + M22 [1] was 69%. It also gave a Mutated/wild type (%) of cyclic AMP produced; test sample: 5B3 100 µg/mL + M22 [1] of 60%, a % inhibition of TSH stimulation; 5B3 10 µg/mL [2] of 12% and a % inhibition of TSH stimulation; 5B3 100 µg/mL [2] of 2%. For the same substance, the Cyclic AMP produced; 5B3 10 µg/mL + TSH 3 ng/mL [2] was 56.4 pmol/mL, the Cyclic AMP produced; 5B3 100 µg/mL + TSH 3 ng/mL [2] was 62.5 pmol/mL and the Mutated/wild type (%) of cyclic AMP produced; 5B3 10 µg/mL + TSH 3 ng/mL [2] was 75%. It also gave a Mutated/wild type (%) of cyclic AMP produced; 5B3 100 µg/mL + TSH 3 ng/mL [2] of 92%.
